The values below come from US20260265392A1 (TSINGHUA UNIVERSITY, published 2026).

The target in assay [1] is T1, recombinant protein (SUM)5-DNB (Alexa647 label in the imaging experiment (site not stated)).
T1 construct: Fusion of a multivalent domain with a nanobody; also called (SUM)5-DNB (Green)
The experiment in a line: fluorescence imaging of SJSA-1 cells, 100 nM each; co-localization (FIG. 3A, 3B). From the text: (§1) Wherein, “Anti DR5” and “Anti CXCR4” respectively represent the fluorescence images of endogenous DR5 and CXCR4 obtained by immunofluorescence staining with DR5 antibody (Abcam, ab8416) and CXCR4 antibody (Protein Tech, 60042-1-Ig). […] The horizontal axis represents the relative distance along the straight path, and the vertical axis represents the relative fluorescence intensity measured at the corresponding position. […] From left to right, they correspond to treatment groups 1 to 3 listed in Example 2. […] The horizontal axis represents various recombinant protein treatment combinations with a final concentration of 100 nM. The vertical axis represents the fluorescence area corresponding to each spot.
(§2) The above recombinant protein combinations were added to the culture medium to a final concentration of 100 nM. The added culture medium was mixed, incubated at 37° C. for about 1 min, and then imaged by total internal reflection fluorescence microscopy (TIRF).

The target of assay [2] is T2, CXC motif chemokine receptor 4 (CXCR4) (human, UniProt P61073 1-352).
T2 construct: whole, on cells; In the assays CXCR4 is the endogenous receptor of human cells; also called chemokine receptor CXCR4; endogenous CXCR4
As to the kind of experiment: immunofluorescence of endogenous CXCR4 on SJSA-1 cells with labelled fusion proteins; co-localization (FIG. 3A, 3B).
Excerpt: as §1, §2

For assay [3], the target named is T3, multivalent domain (SUM)5 (Alexa647 label in the imaging experiment (site not stated)).
T3 construct: also called (SUM)5 (Green)
As to the kind of experiment: laser confocal imaging of SJSA-1 cells with (SIM)6-R4L (Red) and (SUM)5 (Green), 100 nM each (combination 1, FIG. 2A); co-localization. Here is the method:
(§3) Human osteosarcoma SJSA-1 cells (purchased from ATCC (https://www.atcc.org/)) were treated with the above-labeled recombinant proteins or control solution, and then immediately subjected to laser confocal scanning microscopy imaging. The steps are as follows:
(§4) Human osteosarcoma cell line SJSA-1 was cultured in RMPI-1640 medium containing 10% fetal bovine serum (FBS, purchased from Gibco) and 1× penicillin-streptomycin (purchased from HyClone) to 70%-80% confluence. The following combinations of recombinant proteins were added to the culture medium at the same time: (1) (SIM)₆-R4L (Red) and (SUM)₅ (Green), (2) (SIM)₆ (Red) and (SUM)₅-TRAIL (Green), (3) (SIM)₆-R4L (Red) and (SUM)₅-TRAIL (Green), (4) (SIM)₆ (Red) and (SUM)₅ (Green), to a final concentration of 100 nM respectively. The culture medium after adding the recombinant protein was mixed, incubated at 37° C. for about 1 min, and then imaged using a NIKON AIR HD25 laser confocal microscope (purchased from Nikon, Inc.).

In assay [4] the target is T2, CXC motif chemokine receptor 4 (CXCR4). The experiment in a line: laser confocal imaging of SJSA-1 cells: membrane puncta only with ligand-fused domains; the receptor was not stained in this example. Here is the method:
as §3, §4

Assay [5] has as its target T4, recombinant protein (SUM)3-DNB (Alexa647 label in the imaging experiment only (site not stated); no label is stated for the apoptosis assays).
T4 construct: Fusion of a multivalent domain with a nanobody; also called (SUM)3-DNB (Green); fusion protein (SUM)3-DNB
The experiment in a line: fluorescence imaging of SJSA-1 cells; co-localization (FIG. 5A, 5B).
Excerpt: (§5) Wherein, “Anti-DR5” and “Anti-CXCR4” respectively represent the fluorescence images of endogenous DR5 and CXCR4 obtained by immunofluorescence staining with DR5 antibody (Abcam, Catalog No. ab8416) and CXCR4 antibody (Protein Tech, Catalog No. 60042-1-Ig). […] The horizontal axis represents the relative distance along the straight path, and the vertical axis represents the relative fluorescence intensity measured at the corresponding position. […] The horizontal axis represents various recombinant protein treatment combinations with a final concentration of 100 nM. The vertical axis represents the fluorescence area corresponding to each spot.
as §2
(§6) By the same method as in Example 2, the total internal reflection fluorescence microscopy (TIRF) imaging of the following recombinant protein combination against the human osteosarcoma cell line SJSA-1 was measured, and the results are shown in FIG. 5: [0136] Treatment group: combination of (SIM)₃-CNB (Red) and (SUM)₃-DNB (Green) [0137] Control group: combination of (SIM)₃ (Red) and (SUM)₃ (Green)

For assay [6], the target named is T2, CXC motif chemokine receptor 4 (CXCR4). The experiment in a line: immunofluorescence of endogenous CXCR4 on SJSA-1 cells with labelled fusion proteins; co-localization (FIG. 5A, 5B).
Excerpt: as §5, §2, §6

T2 sequence (P61073 whole entry): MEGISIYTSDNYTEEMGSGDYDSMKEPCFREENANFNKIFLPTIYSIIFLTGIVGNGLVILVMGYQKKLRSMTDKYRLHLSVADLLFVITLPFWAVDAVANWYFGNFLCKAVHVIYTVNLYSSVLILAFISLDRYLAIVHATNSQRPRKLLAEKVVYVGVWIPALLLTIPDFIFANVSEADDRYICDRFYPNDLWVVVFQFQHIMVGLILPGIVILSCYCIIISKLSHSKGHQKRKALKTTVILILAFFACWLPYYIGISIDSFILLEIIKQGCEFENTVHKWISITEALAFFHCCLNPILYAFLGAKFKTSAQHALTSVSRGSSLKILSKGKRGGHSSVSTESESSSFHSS
T3 sequence (chain, as listed by the source): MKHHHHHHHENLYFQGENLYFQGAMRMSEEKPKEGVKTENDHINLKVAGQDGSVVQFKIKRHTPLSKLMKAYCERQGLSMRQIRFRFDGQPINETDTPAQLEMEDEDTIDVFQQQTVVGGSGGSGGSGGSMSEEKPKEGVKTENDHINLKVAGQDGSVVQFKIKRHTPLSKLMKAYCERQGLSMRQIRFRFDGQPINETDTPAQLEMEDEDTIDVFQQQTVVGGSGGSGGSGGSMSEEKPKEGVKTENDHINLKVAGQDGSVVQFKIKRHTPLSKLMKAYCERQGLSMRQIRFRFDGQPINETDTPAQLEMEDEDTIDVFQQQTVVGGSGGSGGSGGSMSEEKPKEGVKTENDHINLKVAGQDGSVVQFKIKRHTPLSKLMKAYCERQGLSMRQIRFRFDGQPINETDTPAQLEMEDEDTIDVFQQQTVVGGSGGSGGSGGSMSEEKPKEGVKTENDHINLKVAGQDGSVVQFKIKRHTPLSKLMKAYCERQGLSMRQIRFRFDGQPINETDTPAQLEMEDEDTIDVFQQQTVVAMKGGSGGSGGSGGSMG
T1 sequence (chain, as listed by the source): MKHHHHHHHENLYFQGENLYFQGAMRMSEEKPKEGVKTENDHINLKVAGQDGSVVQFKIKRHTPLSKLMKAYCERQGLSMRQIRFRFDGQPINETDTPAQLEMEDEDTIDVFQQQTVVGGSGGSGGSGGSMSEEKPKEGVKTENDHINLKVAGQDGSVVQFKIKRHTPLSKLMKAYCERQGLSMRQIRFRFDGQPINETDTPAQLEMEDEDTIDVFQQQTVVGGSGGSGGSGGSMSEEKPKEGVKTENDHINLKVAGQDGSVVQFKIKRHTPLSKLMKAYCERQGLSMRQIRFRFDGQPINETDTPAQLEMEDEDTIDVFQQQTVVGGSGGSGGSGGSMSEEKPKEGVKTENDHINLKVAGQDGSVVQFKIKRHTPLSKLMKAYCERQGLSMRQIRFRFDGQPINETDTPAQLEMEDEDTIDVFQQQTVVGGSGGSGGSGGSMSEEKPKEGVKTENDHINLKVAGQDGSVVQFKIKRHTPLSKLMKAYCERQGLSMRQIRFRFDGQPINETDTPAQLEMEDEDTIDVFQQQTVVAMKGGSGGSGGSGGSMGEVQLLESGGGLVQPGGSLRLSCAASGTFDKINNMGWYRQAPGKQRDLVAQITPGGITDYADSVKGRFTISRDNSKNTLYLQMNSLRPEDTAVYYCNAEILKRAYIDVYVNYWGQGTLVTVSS
T4 sequence (chain, as listed by the source): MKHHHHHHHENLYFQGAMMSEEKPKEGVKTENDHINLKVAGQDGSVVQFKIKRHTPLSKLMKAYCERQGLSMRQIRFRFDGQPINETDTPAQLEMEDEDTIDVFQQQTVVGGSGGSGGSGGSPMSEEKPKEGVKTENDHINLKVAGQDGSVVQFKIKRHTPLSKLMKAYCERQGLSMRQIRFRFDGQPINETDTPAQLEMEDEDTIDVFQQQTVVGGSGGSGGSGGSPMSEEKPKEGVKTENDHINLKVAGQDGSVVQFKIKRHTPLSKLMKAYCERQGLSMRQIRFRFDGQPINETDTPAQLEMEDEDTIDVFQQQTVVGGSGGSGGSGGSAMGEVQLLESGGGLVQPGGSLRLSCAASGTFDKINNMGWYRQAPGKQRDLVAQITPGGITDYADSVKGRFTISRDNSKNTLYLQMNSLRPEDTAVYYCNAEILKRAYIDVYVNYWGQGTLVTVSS

B1: recombinant protein (SIM)6-CNB (VHH)
chain: MKHHHHHHHENLYFQGAMSSKVDVIDLTIESSSDEEEDPPAKRGGSGGSGGSGGSKVDVIDLTIESSSDEEEDPPAKRGGSGGSGGSGGSKVDVIDLTIESSSDEEEDPPAKRGAMKGGSGGSGGSGGSMSSKVDVIDLTIESSSDEEEDPPAKRGGSVGSGGSGGSKVDVIDLTIESSSDEEEDPPAKRGGSGGSGGRGGSKVDVIDLTIESSSDEEEDPPAKRGAMRCWGGSGGSGGSGGSMGEVQLMESGGGLVQAGGSLRLSCAASGRTFNNYAMGWFRRAPKGEREFVAAITRSGVRSGVSAIYGDSVKDRFTISRDNAKNTLYLQMNSLKPEDTAVYTCAASAIGSGALRRFEYDYSGQGTQVTVSS
modifications: Alexa594 label in the imaging experiment (site not stated)
notes: Fusion of a multivalent domain with a nanobody; also called (SIM)6-CNB (Red)
For the molecule B1, the binding result in assay [1] and in assay [2] was “binds” in each case.

B2: recombinant protein (SIM)6-R4L (ligand)
chain: MKHHHHHHHENLYFQGAMSSKVDVIDLTIESSSDEEEDPPAKRGGSGGSGGSGGSKVDVIDLTIESSSDEEEDPPAKRGGSGGSGGSGGSKVDVIDLTIESSSDEEEDPPAKRGAMKGGSGGSGGSGGSMSSKVDVIDLTIESSSDEEEDPPAKRGGSVGSGGSGGSKVDVIDLTIESSSDEEEDPPAKRGGSGGSGGRGGSKVDVIDLTIESSSDEEEDPPAKRGAMRCWGGSGGSGGSGGSMGMCYRKCRGGRRWCYQKCGGSGGSGGSGGS
modifications: Alexa594 label in the imaging experiment (site not stated)
notes: also called (SIM)6-R4L (Red)
B2: the binding result in assay [3] and in assay [4] was “binds” throughout.

B3: recombinant protein (SIM)3-CNB (VHH)
chain: MKHHHHHHHENLYFQGAMKVDVIDLTIESSSDEEEDPPAKRGGSGGSGGSGGSMMKVDVIDLTIESSSDEEEDPPAKRGGSGGSGGSGGSMMKVDVIDLTIESSSDEEEDPPAKRGGSGGSGGSGGSMGEVQLMESGGGLVQAGGSLRLSCAASGRTFNNYAMGWFRRAPKGEREFVAAITRSGVRSGVSAIYGDSVKDRFTISRDNAKNTLYLQMNSLKPEDTAVYTCAASAIGSGALRRFEYDYSGQGTQVTVSS
modifications: Alexa594 label in the imaging experiment (site not stated)
notes: Fusion of a multivalent domain with a nanobody; also called (SIM)3-CNB (Red); fusion protein (SIM)3-CNB
As for B3, the binding result in assay [5] and in assay [6] was “binds” in each case.
